Laboratory results taken from patent US20230192817A1 (ZHUHAI TRINOMAB PHARMACEUTICAL, published 2023).

Assays:
[1] = target: T1, VZV gH/gL protein complex (CAMBRIDGEBIO, Cat No: 01-11-0045) (Varicella-Zoster Virus, UniProt P09260 18-802; P09308 22-159); assay: SPR (Biacore), antibody captured on anti-human IgG (Fc) CM5 chip, gH/gL complex as analyte
T1 construct: also called gHgL-Cambridge
T1 sequence 1: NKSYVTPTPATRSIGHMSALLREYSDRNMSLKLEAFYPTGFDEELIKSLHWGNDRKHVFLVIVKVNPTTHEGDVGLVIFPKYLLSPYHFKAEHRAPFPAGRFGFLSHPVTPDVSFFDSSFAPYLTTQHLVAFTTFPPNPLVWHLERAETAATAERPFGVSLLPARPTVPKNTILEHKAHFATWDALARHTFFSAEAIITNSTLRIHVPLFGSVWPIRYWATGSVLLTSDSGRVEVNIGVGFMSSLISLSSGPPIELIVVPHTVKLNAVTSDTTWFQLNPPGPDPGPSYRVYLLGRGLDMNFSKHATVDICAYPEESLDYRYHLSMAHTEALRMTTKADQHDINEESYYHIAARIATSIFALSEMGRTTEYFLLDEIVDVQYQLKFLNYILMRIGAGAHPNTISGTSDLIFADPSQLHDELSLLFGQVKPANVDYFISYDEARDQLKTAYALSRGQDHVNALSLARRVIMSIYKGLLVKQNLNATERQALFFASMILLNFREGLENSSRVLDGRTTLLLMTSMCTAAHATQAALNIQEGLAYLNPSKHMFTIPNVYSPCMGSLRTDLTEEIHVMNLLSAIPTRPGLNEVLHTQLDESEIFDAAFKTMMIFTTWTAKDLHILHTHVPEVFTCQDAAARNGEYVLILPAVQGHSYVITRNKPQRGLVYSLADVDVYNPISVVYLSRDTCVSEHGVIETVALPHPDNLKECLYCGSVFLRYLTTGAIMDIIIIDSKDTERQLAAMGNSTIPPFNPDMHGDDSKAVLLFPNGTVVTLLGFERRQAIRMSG
T1 sequence 2: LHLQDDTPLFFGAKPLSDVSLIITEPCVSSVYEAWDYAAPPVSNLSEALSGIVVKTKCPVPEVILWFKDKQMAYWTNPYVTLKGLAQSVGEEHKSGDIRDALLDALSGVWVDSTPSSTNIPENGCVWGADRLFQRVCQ

[2] = target: T1, VZV gH/gL protein complex …; assay: ELISA, plate coated with 100 ng/well VZV gH/gL complex, detection Goat-Anti-IgG-Fab-HRP
[3] = target: T1, VZV gH/gL protein complex …; assay: ELISA, culture supernatant

B1: fully human VZV monoclonal antibody TRN1024 (antibody, V domains shown)
VH: QVQLVQSGGGLVQPGGSLRLSCEASGFTFSSYWMSWVRQAPGKGLEWVANIKQDGSEKYYVDSVKGRFSISRDNAKNSLYLQMNSLRVEDTAVYYCAREGGGQGKWRLEYGMDVWGQGTTVIVSS
VL: not shown
[1]
  Kd: 36.7 nM
  koff: 0.000621 s⁻¹
  kon: 16900 M⁻¹ s⁻¹
[2]
  EC50 (read off the curve): ~0.6 µg/mL

B2: fully human VZV monoclonal antibody TRN1025 (antibody, V domains shown)
VH: QVQLVQSGGGLVQPGGSLRLSCVASGFTFSSYAMTWVRQAPGKGLEWVSTISGSGGSTFYADSVRGRFTISRDNSKNALYLQMNSLRAEDTAVYYCAKDRSYGGNQPFDYWGQGTLVTVSS
VL: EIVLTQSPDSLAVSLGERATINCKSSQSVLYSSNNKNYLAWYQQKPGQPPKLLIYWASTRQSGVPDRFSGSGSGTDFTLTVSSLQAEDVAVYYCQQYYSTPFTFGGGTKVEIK
[1]
  Kd: 13.4 nM
  koff: 0.000416 s⁻¹
  kon: 31100 M⁻¹ s⁻¹
[2]
  EC50 (read off the curve): ~0.5 µg/mL

B3: fully human VZV monoclonal antibody TRN1026 (antibody, V domains shown)
VH: QVQLVQSGAEVKKPGSSVKVSCKASGRTFSSYAYSWVRQAPGQGLEWMGRVIPVLGITNYAPKFQGKVTITVDKVTSTAFLELTGLKSDDTAVYYCARVSDDVLTGALDYWGQGTLVTVSS
VL: QSVLTQPPSVSGSPGQSVTISCTGTRSDVGSHNRVAWFQQSPGTAPKLMIYEVTNRPSGVPDRFSGSKSGNTASLTISGLQAEDEADYYCSSYTSTSTWVFGGGTKLTVL
[1]
  Kd: 2.66 nM
  koff: 0.000274 s⁻¹
  kon: 103000 M⁻¹ s⁻¹

B4: antibody variant derived from antibody TRN1026 (antibody, V domains shown)
VH: QVQLVQSGAEVKKPGSSVKVSCKASGRTFSSYAYSWVRQAPGQGLEWMGRVIPVLGITNYAPKFQDKVTITADKVTSTAFLELTGLKSDDTAVYYCARVSDDVLTGALDYWGQGTLVTVSS
VL: QSVLTQPPSVSGSPGQSVTISFTGTRSDVGSHNRVAWFQQSPGTAPKLMIYEVTNRPSGVPDRFSGSKSGNTASLTISGLQAEDEADYYCSSYTSTSTWVFGGGTKLTVL
notes: also called Antibody derived from TRN1026
[3]
  EC50: 0.05 µg/mL
